Data taken from article PMC8227628, “DisA Limits RecG Activities at Stalled or Reversed Replication Forks” (Cells, 2021).
Blank lines part the entries; values can stand above or below the molecule they belong to.

Columns and labels:
[1] = molecular target: T1, DisA (Bacillus subtilis, UniProt P37573); assay: TLC of conversion to c-di-AMP; format: biochemical; conditions: 10 mM MgCl2, 100 µM ATP, pH 7.5, 37 °C, no DNA; labelled compound
T1 construct: full length, expressed in E. coli BL21(DE3) pLysS; octamer; C-terminal His tag in the pull-down variant
T1 sequence (P37573 1-360): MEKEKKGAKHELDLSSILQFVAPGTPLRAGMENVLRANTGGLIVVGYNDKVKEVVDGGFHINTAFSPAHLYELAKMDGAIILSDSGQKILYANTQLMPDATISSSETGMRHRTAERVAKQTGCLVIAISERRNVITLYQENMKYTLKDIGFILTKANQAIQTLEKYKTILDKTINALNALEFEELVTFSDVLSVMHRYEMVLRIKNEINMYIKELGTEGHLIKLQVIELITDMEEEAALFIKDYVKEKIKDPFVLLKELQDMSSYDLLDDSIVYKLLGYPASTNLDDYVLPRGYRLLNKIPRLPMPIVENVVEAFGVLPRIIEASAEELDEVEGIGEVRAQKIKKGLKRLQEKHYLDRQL

[2] = molecular target: T2, His-tagged DisA (B. subtilis, UniProt P37573 1-360); assay: cell-based or functional assay
T2 sequence (looked up): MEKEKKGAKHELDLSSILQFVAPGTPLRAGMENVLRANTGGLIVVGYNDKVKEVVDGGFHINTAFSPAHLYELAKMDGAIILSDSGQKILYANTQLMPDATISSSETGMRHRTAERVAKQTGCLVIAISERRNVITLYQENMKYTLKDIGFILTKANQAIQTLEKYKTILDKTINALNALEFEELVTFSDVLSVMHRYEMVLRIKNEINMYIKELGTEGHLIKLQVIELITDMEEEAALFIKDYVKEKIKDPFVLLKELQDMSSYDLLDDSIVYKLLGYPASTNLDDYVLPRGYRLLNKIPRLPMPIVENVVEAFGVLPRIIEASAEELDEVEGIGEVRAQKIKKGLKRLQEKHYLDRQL

[3] = molecular target: T3, DisA (Bacillus subtilis, UniProt P37573 1-360); assay: EMSA; 5 mM ATPgS; 37 C; 0.2% glutaraldehyde before loading; apparent Kd; complexes retained in well; EMSA: 0.1 nM HJ-J3 in buffer B (composition not in material) with 5 mM ATPgS, 15 min, 37 C, 0.2% glutaraldehyde before 6% PAGE in TAE; DNase I: buffer C 50 mM Tris-HCl pH 7.5, 1 mM DTT, 50 mM NaCl, 10 mM MgCl2, 0.05 mg/mL BSA, 5% glycerol, 5 mM ATPgS, 37 C; conditions: protein: recombinant; chain copies: 8; label: 32P (gamma-32P, 5' end of one strand); four-way Holliday junction of 4 strands, 1 copy each, heterologous arms
T3 sequence: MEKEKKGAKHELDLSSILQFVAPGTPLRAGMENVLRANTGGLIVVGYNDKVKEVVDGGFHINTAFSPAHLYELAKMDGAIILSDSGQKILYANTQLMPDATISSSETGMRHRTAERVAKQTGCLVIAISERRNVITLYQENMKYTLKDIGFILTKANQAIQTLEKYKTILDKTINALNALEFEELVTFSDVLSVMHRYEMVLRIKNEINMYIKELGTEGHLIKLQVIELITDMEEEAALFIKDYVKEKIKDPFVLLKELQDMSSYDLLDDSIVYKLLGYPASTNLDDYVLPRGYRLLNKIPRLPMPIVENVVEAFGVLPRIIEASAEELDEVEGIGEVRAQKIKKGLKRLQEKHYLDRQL

[4] = molecular target: T4, RecG (Bacillus subtilis, UniProt O34942 1-682); assay: EMSA; 5 mM ATPgS; 37 C; 0.2% glutaraldehyde before loading; apparent Kd; G-I and minor G-II complexes; EMSA: 0.1 nM HJ-J3 in buffer B (composition not in material) with 5 mM ATPgS, 15 min, 37 C, 0.2% glutaraldehyde before 6% PAGE in TAE; DNase I: buffer C 50 mM Tris-HCl pH 7.5, 1 mM DTT, 50 mM NaCl, 10 mM MgCl2, 0.05 mg/mL BSA, 5% glycerol, 5 mM ATPgS, 37 C; conditions: protein: recombinant; label: 32P (gamma-32P, 5' end of one strand); four-way Holliday junction of 4 strands, 1 copy each, heterologous arms
T4 sequence: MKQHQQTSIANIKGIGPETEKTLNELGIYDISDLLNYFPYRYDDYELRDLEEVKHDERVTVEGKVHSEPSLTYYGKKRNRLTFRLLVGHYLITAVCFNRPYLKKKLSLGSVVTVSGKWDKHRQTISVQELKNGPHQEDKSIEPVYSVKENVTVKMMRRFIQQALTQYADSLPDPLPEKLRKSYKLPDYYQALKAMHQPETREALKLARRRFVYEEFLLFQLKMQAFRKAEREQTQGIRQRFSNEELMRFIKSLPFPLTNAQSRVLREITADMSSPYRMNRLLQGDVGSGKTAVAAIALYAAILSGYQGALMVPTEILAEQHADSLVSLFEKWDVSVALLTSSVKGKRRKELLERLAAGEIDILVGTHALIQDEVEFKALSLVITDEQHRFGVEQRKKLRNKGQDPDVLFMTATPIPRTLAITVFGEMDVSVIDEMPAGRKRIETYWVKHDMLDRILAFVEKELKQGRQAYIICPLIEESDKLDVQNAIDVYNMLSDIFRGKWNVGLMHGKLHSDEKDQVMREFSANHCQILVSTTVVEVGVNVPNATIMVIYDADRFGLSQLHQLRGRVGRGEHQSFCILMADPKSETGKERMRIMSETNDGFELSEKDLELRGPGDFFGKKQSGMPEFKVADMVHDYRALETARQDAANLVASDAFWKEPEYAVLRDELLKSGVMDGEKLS

[5] = molecular target: T5, DisA;RecG (Bacillus subtilis;Bacillus subtilis, UniProt P37573;O34942 1-360;1-682, |); assay: DNase I footprinting; 5 mM ATPgS, 10 mM Mg2+; 60 nM RecG with increasing DisA; shorter protection on both sides of junction; ternary complex proposed; EMSA: 0.1 nM HJ-J3 in buffer B (composition not in material) with 5 mM ATPgS, 15 min, 37 C, 0.2% glutaraldehyde before 6% PAGE in TAE; DNase I: buffer C 50 mM Tris-HCl pH 7.5, 1 mM DTT, 50 mM NaCl, 10 mM MgCl2, 0.05 mg/mL BSA, 5% glycerol, 5 mM ATPgS, 37 C; conditions: protein: recombinant;recombinant; tags: ;; chain copies: 8;1; label: 32P (gamma-32P, 5' end of one strand); four-way Holliday junction of 4 strands, 1 copy each, heterologous arms
T5 sequence 1: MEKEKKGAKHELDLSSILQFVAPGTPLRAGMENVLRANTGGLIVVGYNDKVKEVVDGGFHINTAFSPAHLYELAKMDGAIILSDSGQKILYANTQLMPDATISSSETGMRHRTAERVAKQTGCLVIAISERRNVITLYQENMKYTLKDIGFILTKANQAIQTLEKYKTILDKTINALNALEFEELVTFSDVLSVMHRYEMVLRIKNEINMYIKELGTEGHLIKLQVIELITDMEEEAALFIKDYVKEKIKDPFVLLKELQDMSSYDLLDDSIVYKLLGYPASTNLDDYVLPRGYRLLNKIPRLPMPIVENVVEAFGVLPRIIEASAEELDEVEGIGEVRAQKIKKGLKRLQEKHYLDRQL
T5 sequence 2: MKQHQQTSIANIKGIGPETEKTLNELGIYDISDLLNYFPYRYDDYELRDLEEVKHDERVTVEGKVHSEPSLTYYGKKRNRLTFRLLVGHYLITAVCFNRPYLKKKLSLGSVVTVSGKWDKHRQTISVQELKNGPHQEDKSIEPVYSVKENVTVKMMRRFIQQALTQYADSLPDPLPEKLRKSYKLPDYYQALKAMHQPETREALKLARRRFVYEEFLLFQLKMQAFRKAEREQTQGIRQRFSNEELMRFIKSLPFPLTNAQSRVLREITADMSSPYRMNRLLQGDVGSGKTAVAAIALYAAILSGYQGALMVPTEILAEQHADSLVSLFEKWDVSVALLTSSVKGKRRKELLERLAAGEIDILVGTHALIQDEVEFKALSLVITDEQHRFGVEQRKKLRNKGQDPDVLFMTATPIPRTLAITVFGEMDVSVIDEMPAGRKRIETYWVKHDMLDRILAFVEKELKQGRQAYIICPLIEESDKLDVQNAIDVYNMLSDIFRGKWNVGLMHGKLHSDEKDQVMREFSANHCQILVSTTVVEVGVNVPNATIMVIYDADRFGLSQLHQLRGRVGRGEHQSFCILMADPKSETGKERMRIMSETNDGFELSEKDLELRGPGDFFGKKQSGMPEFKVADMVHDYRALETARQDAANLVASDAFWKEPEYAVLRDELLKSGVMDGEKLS

Molecule: Nc1ncnc2c1ncn2[C@@H]1O[C@@H]2COP(=O)(O)O[C@H]3[C@@H](O)[C@H](n4cnc5c(N)ncnc54)O[C@@H]3COP(=O)(O)O[C@H]2[C@H]1O [c-di-AMP]
- TLC of [α^32P]-ATP conversion to c-di-AMP [1]: it efficiently converted two ATP molecules into c-di-AMP

- inhibition of the DAC activity (c-di-AMP synthesis) of DisA (25 nM) with HJ-J3 DNA (125 nM) and 100 µM ATP, RecG 7 to 30 nM [2]: ~11 fold
B1: native RecG (natural protein, B. subtilis, UniProt O34942 1-682, looked up)
chain: MKQHQQTSIANIKGIGPETEKTLNELGIYDISDLLNYFPYRYDDYELRDLEEVKHDERVTVEGKVHSEPSLTYYGKKRNRLTFRLLVGHYLITAVCFNRPYLKKKLSLGSVVTVSGKWDKHRQTISVQELKNGPHQEDKSIEPVYSVKENVTVKMMRRFIQQALTQYADSLPDPLPEKLRKSYKLPDYYQALKAMHQPETREALKLARRRFVYEEFLLFQLKMQAFRKAEREQTQGIRQRFSNEELMRFIKSLPFPLTNAQSRVLREITADMSSPYRMNRLLQGDVGSGKTAVAAIALYAAILSGYQGALMVPTEILAEQHADSLVSLFEKWDVSVALLTSSVKGKRRKELLERLAAGEIDILVGTHALIQDEVEFKALSLVITDEQHRFGVEQRKKLRNKGQDPDVLFMTATPIPRTLAITVFGEMDVSVIDEMPAGRKRIETYWVKHDMLDRILAFVEKELKQGRQAYIICPLIEESDKLDVQNAIDVYNMLSDIFRGKWNVGLMHGKLHSDEKDQVMREFSANHCQILVSTTVVEVGVNVPNATIMVIYDADRFGLSQLHQLRGRVGRGEHQSFCILMADPKSETGKERMRIMSETNDGFELSEKDLELRGPGDFFGKKQSGMPEFKVADMVHDYRALETARQDAANLVASDAFWKEPEYAVLRDELLKSGVMDGEKLS

B2: HJ-J3 DNA (fixed Holliday junction) (structured_DNA)
DNA 1: CGCAAGCGACAGGAACCTCGAGAAGCTTCCGGTAGCAGCCTGAGCGGTGGTTGAATTCCTCGAGGTTCCTGTCGCTTGCG
DNA 2: CGCAAGCGACAGGAACCTCGAGGAATTCAACCACCGCTCAACTCAACTGCAGTCTAGACTCGAGGTTCCTGTCGCTTGCG
DNA 3: CGCAAGCGACAGGAACCTCGAGTCTAGACTGCAGTTGAGTCCTTGCTAGGACGGATCCCTCGAGGTTCCTGTCGCTTGCG
DNA 4: CGCAAGCGACAGGAACCTCGAGGGATCCGTCCTAGCAAGGGGCTGCTACCGGAAGCTTCTCGAGGTTCCTGTCGCTTGCG
- Kd [3]: 17 ± 1 nM
- Kd [4]: 4 ± 0.3 nM
- binding result [5]: binds
